# Test results taken from PMC10786891, “Massively parallel profiling of RNA-targeting CRISPR-Cas13d”.
# T1: EsCas13d, nuclease-dead (Eubacterium siraeum, UniProt B0MS50, R295A;H300A;R849A;H854A)
# T1 sequence: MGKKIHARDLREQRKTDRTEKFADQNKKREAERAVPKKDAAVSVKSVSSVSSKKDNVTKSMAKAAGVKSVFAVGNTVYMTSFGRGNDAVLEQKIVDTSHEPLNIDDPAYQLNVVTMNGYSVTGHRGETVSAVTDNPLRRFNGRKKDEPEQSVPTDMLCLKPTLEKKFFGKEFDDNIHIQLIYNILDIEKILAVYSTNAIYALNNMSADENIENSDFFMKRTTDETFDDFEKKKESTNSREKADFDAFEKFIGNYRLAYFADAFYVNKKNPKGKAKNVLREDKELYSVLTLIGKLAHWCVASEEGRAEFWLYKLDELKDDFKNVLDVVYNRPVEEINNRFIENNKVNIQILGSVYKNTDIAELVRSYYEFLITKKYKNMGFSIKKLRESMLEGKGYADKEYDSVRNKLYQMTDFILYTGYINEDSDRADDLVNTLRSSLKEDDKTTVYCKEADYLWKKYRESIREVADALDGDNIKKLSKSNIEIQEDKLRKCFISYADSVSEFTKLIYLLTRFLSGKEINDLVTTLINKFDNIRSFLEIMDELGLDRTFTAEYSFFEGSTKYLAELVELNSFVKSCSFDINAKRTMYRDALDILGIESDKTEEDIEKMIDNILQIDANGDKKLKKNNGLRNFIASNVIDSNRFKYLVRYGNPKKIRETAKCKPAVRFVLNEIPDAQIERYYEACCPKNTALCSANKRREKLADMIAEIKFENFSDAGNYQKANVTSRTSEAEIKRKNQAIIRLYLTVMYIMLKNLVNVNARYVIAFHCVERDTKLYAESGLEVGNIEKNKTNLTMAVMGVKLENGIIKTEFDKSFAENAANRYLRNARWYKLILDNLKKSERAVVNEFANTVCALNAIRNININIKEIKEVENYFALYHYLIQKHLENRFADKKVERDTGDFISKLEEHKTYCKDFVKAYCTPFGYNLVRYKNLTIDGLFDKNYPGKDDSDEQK
# B1: target 1 insU 3' of 13,insA 3' of 6 (mixed)
# RNA 1: CACCCGUGCAAAAAUGCAGGGGUCUAAAACUGAGCGGAUAACCUCUCUAUGG
# RNA 2: GGGAAUGGAUCCACAUCUACGAAUUCGUACCAUAGAGAGUGUUAUCCAGCUCACCGAGAUCGGAAGAGCACACGU
# B2: target 1 C6G,G17C (mixed)
# RNA 1: CACCCGUGCAAAAAUGCAGGGGUCUAAAACUGAGCGGAUAACCUCUCUAUGG
# RNA 2: GGGAAUGGAUCCACAUCUACGAAUUCGUACCAUACAGAGGUUAUCGGCUCACCGAGAUCGGAAGAGCACACGU
# B3: target 1 insG 3' of 21,insU 3' of 7 (mixed)
# RNA 1: CACCCGUGCAAAAAUGCAGGGGUCUAAAACUGAGCGGAUAACCUCUCUAUGG
# RNA 2: GGGAAUGGAUCCACAUCUACGAAUUCGUACCGAUAGAGAGGUUAUCUCGCUCACCGAGAUCGGAAGAGCACACGU
# B4: target 1 A1U,G13U (mixed)
# RNA 1: CACCCGUGCAAAAAUGCAGGGGUCUAAAACUGAGCGGAUAACCUCUCUAUGG
# RNA 2: GGGAAUGGAUCCACAUCUACGAAUUCGUACCAUAGAGAUGUUAUCCGCUCUCCGAGAUCGGAAGAGCACACGU
# B5: target 1 U3C,A14C (mixed)
# RNA 1: CACCCGUGCAAAAAUGCAGGGGUCUAAAACUGAGCGGAUAACCUCUCUAUGG
# RNA 2: GGGAAUGGAUCCACAUCUACGAAUUCGUACCAUAGAGCGGUUAUCCGCCCACCGAGAUCGGAAGAGCACACGU
# B6: target 1 insA 3' of 11,insG 3' of 7 (mixed)
# RNA 1: CACCCGUGCAAAAAUGCAGGGGUCUAAAACUGAGCGGAUAACCUCUCUAUGG
# RNA 2: GGGAAUGGAUCCACAUCUACGAAUUCGUACCAUAGAGAGGUAUAUCGCGCUCACCGAGAUCGGAAGAGCACACGU
# B7: target 1 insG 3' of 9,insC 3' of 3 (mixed)
# RNA 1: CACCCGUGCAAAAAUGCAGGGGUCUAAAACUGAGCGGAUAACCUCUCUAUGG
# RNA 2: GGGAAUGGAUCCACAUCUACGAAUUCGUACCAUAGAGAGGUUAGUCCGCUCCACCGAGAUCGGAAGAGCACACGU
# B8: target 1 A9G,A16G (mixed)
# RNA 1: CACCCGUGCAAAAAUGCAGGGGUCUAAAACUGAGCGGAUAACCUCUCUAUGG
# RNA 2: GGGAAUGGAUCCACAUCUACGAAUUCGUACCAUAGGGAGGUUGUCCGCUCACCGAGAUCGGAAGAGCACACGU
# B9: target 1 insC 3' of 19,insC 3' of 5 (mixed)
# RNA 1: CACCCGUGCAAAAAUGCAGGGGUCUAAAACUGAGCGGAUAACCUCUCUAUGG
# RNA 2: GGGAAUGGAUCCACAUCUACGAAUUCGUACCAUCAGAGAGGUUAUCCGCCUCACCGAGAUCGGAAGAGCACACGU
# B10: target 1 G13U (mixed)
# RNA 1: CACCCGUGCAAAAAUGCAGGGGUCUAAAACUGAGCGGAUAACCUCUCUAUGG
# RNA 2: GGGAAUGGAUCCACAUCUACGAAUUCGUACCAUAGAGAUGUUAUCCGCUCACCGAGAUCGGAAGAGCACACGU
# B11: target 1 insA 3' of 7,insU 3' of 1 (mixed)
# RNA 1: CACCCGUGCAAAAAUGCAGGGGUCUAAAACUGAGCGGAUAACCUCUCUAUGG
# RNA 2: GGGAAUGGAUCCACAUCUACGAAUUCGUACCAUAGAGAGGUUAUCACGCUCAUCCGAGAUCGGAAGAGCACACGU
# B12: target 1 A1G,G13U (mixed)
# RNA 1: CACCCGUGCAAAAAUGCAGGGGUCUAAAACUGAGCGGAUAACCUCUCUAUGG
# RNA 2: GGGAAUGGAUCCACAUCUACGAAUUCGUACCAUAGAGAUGUUAUCCGCUCGCCGAGAUCGGAAGAGCACACGU
# B13: target 1 A1U,A20C (mixed)
# RNA 1: CACCCGUGCAAAAAUGCAGGGGUCUAAAACUGAGCGGAUAACCUCUCUAUGG
# RNA 2: GGGAAUGGAUCCACAUCUACGAAUUCGUACCCUAGAGAGGUUAUCCGCUCUCCGAGAUCGGAAGAGCACACGU
# B14: target 1 insA 3' of 8,insG 3' of 7 (mixed)
# RNA 1: CACCCGUGCAAAAAUGCAGGGGUCUAAAACUGAGCGGAUAACCUCUCUAUGG
# RNA 2: GGGAAUGGAUCCACAUCUACGAAUUCGUACCAUAGAGAGGUUAUACGCGCUCACCGAGAUCGGAAGAGCACACGU
# B15: target 1 insU 3' of 20,insC 3' of 15 (mixed)
# RNA 1: CACCCGUGCAAAAAUGCAGGGGUCUAAAACUGAGCGGAUAACCUCUCUAUGG
# RNA 2: GGGAAUGGAUCCACAUCUACGAAUUCGUACCAUUAGAGCAGGUUAUCCGCUCACCGAGAUCGGAAGAGCACACGU
# B16: target 1 insG 3' of 16,insG 3' of 10 (mixed)
# RNA 1: CACCCGUGCAAAAAUGCAGGGGUCUAAAACUGAGCGGAUAACCUCUCUAUGG
# RNA 2: GGGAAUGGAUCCACAUCUACGAAUUCGUACCAUAGAGGAGGUUGAUCCGCUCACCGAGAUCGGAAGAGCACACGU
# B17: target 1 insG 3' of 16,insG 3' of 16 (mixed)
# RNA 1: CACCCGUGCAAAAAUGCAGGGGUCUAAAACUGAGCGGAUAACCUCUCUAUGG
# RNA 2: GGGAAUGGAUCCACAUCUACGAAUUCGUACCAUAGAGGGAGGUUAUCCGCUCACCGAGAUCGGAAGAGCACACGU
# B18: target 1 insU 3' of 20,insC 3' of 3 (mixed)
# RNA 1: CACCCGUGCAAAAAUGCAGGGGUCUAAAACUGAGCGGAUAACCUCUCUAUGG
# RNA 2: GGGAAUGGAUCCACAUCUACGAAUUCGUACCAUUAGAGAGGUUAUCCGCUCCACCGAGAUCGGAAGAGCACACGU
# B19: target 1 insU 3' of 7,insA 3' of 7 (mixed)
# RNA 1: CACCCGUGCAAAAAUGCAGGGGUCUAAAACUGAGCGGAUAACCUCUCUAUGG
# RNA 2: GGGAAUGGAUCCACAUCUACGAAUUCGUACCAUAGAGAGGUUAUCUACGCUCACCGAGAUCGGAAGAGCACACGU
# B20: target 1 C7U,C21A (mixed)
# RNA 1: CACCCGUGCAAAAAUGCAGGGGUCUAAAACUGAGCGGAUAACCUCUCUAUGG
# RNA 2: GGGAAUGGAUCCACAUCUACGAAUUCGUACAAUAGAGAGGUUAUUCGCUCACCGAGAUCGGAAGAGCACACGU
# B21: target 1 insA 3' of 22,insG 3' of 22 (mixed)
# RNA 1: CACCCGUGCAAAAAUGCAGGGGUCUAAAACUGAGCGGAUAACCUCUCUAUGG
# RNA 2: GGGAAUGGAUCCACAUCUACGAAUUCGUACAGCAUAGAGAGGUUAUCCGCUCACCGAGAUCGGAAGAGCACACGU
# B22: target 1 A1U,G12C (mixed)
# RNA 1: CACCCGUGCAAAAAUGCAGGGGUCUAAAACUGAGCGGAUAACCUCUCUAUGG
# RNA 2: GGGAAUGGAUCCACAUCUACGAAUUCGUACCAUAGAGAGCUUAUCCGCUCUCCGAGAUCGGAAGAGCACACGU
# B23: target 1 A1U,C6U (mixed)
# RNA 1: CACCCGUGCAAAAAUGCAGGGGUCUAAAACUGAGCGGAUAACCUCUCUAUGG
# RNA 2: GGGAAUGGAUCCACAUCUACGAAUUCGUACCAUAGAGAGGUUAUCUGCUCUCCGAGAUCGGAAGAGCACACGU
# B24: target 1 insU 3' of 14,insC 3' of 10 (mixed)
# RNA 1: CACCCGUGCAAAAAUGCAGGGGUCUAAAACUGAGCGGAUAACCUCUCUAUGG
# RNA 2: GGGAAUGGAUCCACAUCUACGAAUUCGUACCAUAGAGAUGGUUCAUCCGCUCACCGAGAUCGGAAGAGCACACGU
# B25: target 1 insA 3' of 6 (mixed)
# RNA 1: CACCCGUGCAAAAAUGCAGGGGUCUAAAACUGAGCGGAUAACCUCUCUAUGG
# RNA 2: GGGAAUGGAUCCACAUCUACGAAUUCGUACCAUAGAGAGGUUAUCCAGCUCACCGAGAUCGGAAGAGCACACGU
# B26: target 1 insU 3' of 18,insG 3' of 9 (mixed)
# RNA 1: CACCCGUGCAAAAAUGCAGGGGUCUAAAACUGAGCGGAUAACCUCUCUAUGG
# RNA 2: GGGAAUGGAUCCACAUCUACGAAUUCGUACCAUAUGAGAGGUUAGUCCGCUCACCGAGAUCGGAAGAGCACACGU
# B27: target 1 U11A,G12C (mixed)
# RNA 1: CACCCGUGCAAAAAUGCAGGGGUCUAAAACUGAGCGGAUAACCUCUCUAUGG
# RNA 2: GGGAAUGGAUCCACAUCUACGAAUUCGUACCAUAGAGAGCAUAUCCGCUCACCGAGAUCGGAAGAGCACACGU
# B28: target 1 insG 3' of 19,insC 3' of 9 (mixed)
# RNA 1: CACCCGUGCAAAAAUGCAGGGGUCUAAAACUGAGCGGAUAACCUCUCUAUGG
# RNA 2: GGGAAUGGAUCCACAUCUACGAAUUCGUACCAUGAGAGAGGUUACUCCGCUCACCGAGAUCGGAAGAGCACACGU
# Target: T1, EsCas13d, nuclease-dead
# Test: crRNA (strand 1, pre-loaded); Mg2+; 40 mM Tris-HCl pH 7.5, 150 mM NaCl, 6 mM MgCl2, 1 mM DTT, 0.1% Tween-20, 0.2 mg/ml BSA; 25 C; 10 min per concentration, then washed
# Settings: tags: His6-TwinStrep-SUMO cleaved; N-terminal SNAP kept (SNAP-Surface 488); label: 3' end held by stalled T7 RNA polymerase
row,Binder,Kd [nM]
1,B1,33.9 ± 3.2
2,B2,~41
3,B3,73 ± 9
4,B4,49 ± 10
5,B5,84 ± 18
6,B6,16.7 ± 0.7
7,B7,15.9 ± 0.9
8,B8,37 ± 4
9,B9,75 ± 21
10,B10,34 ± 4
11,B11,7.7 ± 0.5
12,B12,41 ± 7
13,B13,36 ± 8
14,B14,13.3 ± 0.8
15,B15,28 ± 2.2
16,B16,31.2 ± 2.2
17,B17,22.5 ± 1.4
18,B18,12.9 ± 1.3
19,B19,7.75 ± 0.3
20,B20,24.7 ± 2.5
21,B21,15.2 ± 0.9
22,B22,17.5 ± 1.7
23,B23,11.4 ± 0.9
24,B24,39 ± 10
25,B25,15 ± 1.3
26,B26,67 ± 10
27,B27,7.59 ± 0.28
28,B28,78 ± 10
